Assay results from article PMC10080908 (BMC Biology, 2023).

Assays:
[1] = target: T1, UBXN7-UAS recombinant protein (human, UniProt O94888 94-284); assay: pull-down; in vitro: GST-RING domains on beads with UBE2D2, with or without UBXN7-UAS; Coomassie staining; conditions: both partners purified
T1 construct: UAS domain of human UBXN7 (aa 94-284); also called UAS domain; source: E. coli BL21, purified (Glutathione Sepharose, released by GST-3C protease)
T1 sequence (looked up): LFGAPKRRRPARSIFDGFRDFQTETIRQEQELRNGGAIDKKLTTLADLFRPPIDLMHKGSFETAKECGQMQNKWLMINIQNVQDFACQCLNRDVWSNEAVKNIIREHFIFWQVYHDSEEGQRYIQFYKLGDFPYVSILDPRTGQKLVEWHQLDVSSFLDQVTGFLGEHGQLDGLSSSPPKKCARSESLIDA

UBE2D2 = target: T2, UBE2D2 (human, UniProt P62837 1-147); assay: as above; conditions: both partners purified
T2 construct: UBE2D2 without GST; probably released from GST-UBE2D2 by GST-3C protease as told in general for the PGEX4T3-3C constructs; also called recombinant UBE2D2; source: recombinant

binding result [1]: binds | binding result (UBE2D2): binds
B1: GST-TOPORS-RING (domain or fragment, human, UniProt Q9NS56 68-176, looked up)
chain: MASAAKEFKMDNFSPKAGTSKLQQTVPADASPDSKCPICLDRFDNVSYLDRCLHKFCFRCVQEWSKNKAECPLCKQPFDSIFHSVRAEDDFKEYVLRPSYNGSFVTPDR
notes: human TOPORS-RING (aa 68-176); the methods tell its cloning into p3xFlag-CMV-10 only, not into the GST vector; also called minimal RING domain of TOPORS; TOPORS RING domain; source: recombinant, on Glutathione Sepharose
